Assay results reported in patent publication US20100279930A1, “HUMAN PANCREATIC POLYPEPTIDE (HPP) ANALOGUES AND THEIR EFFECTS ON FEEDING BEHAVIOUR” (priority 2007, published 2010).

Tested on: Male C57BL/6 mice
Assay: In vivo food intake experiments in mice (half-life in the blood judged from appetite suppression)
Set-up: species or system mouse
Details: comparator native human PP; judged from food intake reduction in mice (4-8 h, 0-24 h, 4:1 or 24:1 ratio)
Experimental: In Vivo Food Intake Experiments
Male C57BL/6 mice (20-30 g) were used for all mouse experiments. Mice were individually housed in IVC cages. Animals were randomized by weight and fasted overnight for 16 hrs before intraperitoneal injection at 9 am. All peptide solutions were prepared freshly the morning of the study and injected as 100 ul. Food intake was measured at 1, 2, 3, 4, 6, 8 and 24 hours post injection. The peptide was dosed at 30 nmol/kg, 50 nmol/kg, 100 nmol/kg, 120 nmol/kg, 150 nmol/kg, 300 nmol/kg, 600 nmol/kg or 1000 nmol/kg depending on the activity. In each case, a control of saline and a control of unmodified human Pancreatic Polypeptide was carried out. All statistics are calculated using a one-way ANOVA with Dunnett's post-test or one-way ANOVA with Bonferroni post-test.
A control of saline was used.
FIG. 2 and in the comparative graph of FIG. 3. […] It is hypothesized that that is as a possible result of stronger activity at the receptor and longer activity.
The mouse is a good model for degradation rates in humans, irrespective of the fact that the receptors for PP in mice are different from the human receptor.

B1: 4055860 (peptide)
chain: CAPLEPVYPGDNATPEQMAQYAADLRRYINMLTRPRYCAPLEPVYPGDNATPEQMAQYAADLRRYINMLTRPRY
modifications: synthetic hPP analogue peptide
half-life in the blood compared with native human PP: longer half life
